The nature of this data set: self-splicing fitness, log relative to wild type (ln ratio); higher = more splicing; Tetrahymena group I intron in knt gene, E. coli kanamycin selection, DiMSum; sequences stand for … in CUCUCU…GGAGGGAAAAGUUAUCAGGCAUGCACCUGGUAGCUAGUCUUUAAACCAAUAGAUUGCAUCGGUUUAAAAGGCAAGACCGUCAAAUUGCGGGAAAGGGGUCAACAGCCGUUCAGUACCAAGUCUCAGGGGAAACUUUGAGAUGGCCUUGCAAAGGGUAUGGUAAUAAGCUGACGGACAUGGUCCUAACCACGCAGCCAAGUCCUAAGUCAACAGAUCUUCUGUUGAUAUGGAUGCAGUUCACAGACUAAAUGUCGGUCGGGGAAGAUGUAUUCUUCUCAUAAGAUAUAGUCGGACCUCUCCUUAAUGGGAGCUAGCGGAUGAAGUGAUGCAACACUGGAGCCGCUGGGAACUAAUUUGUAUGCGAAAGUAUAUUGAUUAGUUUUGGAGUACUCGUGGUCG
An outline of the steps:
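DiMSum derived fitness as the error-weighted combination of fold changes across replicates, kanamycin versus no kanamycin, normalised to wild type. E. coli BL21(DE3) held the library, which randomised all eight P1ex-region intron nucleotides within the knt kanamycin-resistance gene on pET-22b(+). Six replicate transformations grew overnight at 37°C or 30°C on LB agar with or without 25 μg/mL kanamycin, also containing 100 μg/mL carbenicillin, 50 μM IPTG and 0.2% rhamnose, and pooled colonies were amplicon-sequenced on an Illumina HiSeq 2500.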

± gives the uncertainty stated by the source.

For CAUAAGCAAUAUUACGGCGC, the “self-splicing fitness (ln)” value was -2.68 ± 0.42 (30 °C) and -3.17 ± 0.35 (37 °C).

Regarding CAUAAGCAAUAUUACGGCUG, the “self-splicing fitness (ln)” value is, setting by setting: (30 °C) -0.37 ± 0.082; (37 °C) 0.0915 ± 0.12. The matching figures for CAUAAGCAAUAUUACGGGGA: -2.02 ± 0.17 and -2.83 ± 0.23. The matching figures for CAUAAGCAAUAUUACGGGGG: -2.49 ± 0.094 and -2.42 ± 0.14. Consider CAUAAGCAAUAUUACGGUCG, for which the “self-splicing fitness (ln)” value (30 °C) came to 0.0543 ± 0.064 and the “self-splicing fitness (ln)” value (37 °C) is -0.0112 ± 0.079.

On to CAUAAGCAAUAUUACGUAAG, for which the “self-splicing fitness (ln)” value runs as follows: (30 °C) 0.111 ± 0.062; (37 °C) 0.3 ± 0.079. For the sequence CAUAAGCAAUAUUACGUACC, where the note is “30 °C”, the “self-splicing fitness (ln)” value is -1.97 ± 0.3. On to CAUAAGCAAUAUUACGUACG, for which the “self-splicing fitness (ln)” value (30 °C) is -0.507 ± 0.053 and the “self-splicing fitness (ln)” value (37 °C) turned out to be 0.239 ± 0.074. For CAUAAGCAAUAUUACGUCAG, the “self-splicing fitness (ln)” value by setting is: (30 °C) -1.26 ± 0.13; (37 °C) 0.389 ± 0.15. With CAUAAGCAAUAUUACGUGAC, the “self-splicing fitness (ln)” value runs as follows: (30 °C) -2.48 ± 0.15; (37 °C) -2.03 ± 0.22.

As to CAUAAGCAAUAUUACGUGGC, the “self-splicing fitness (ln)” value (37 °C) is -1.86 ± 0.25. Consider CAUAAGCAAUAUUACGUUAA, for which the “self-splicing fitness (ln)” value runs as follows: (30 °C) -2.6 ± 0.23; (37 °C) -2.92 ± 0.4. The matching figures for CAUCAGCAAUAUUACGAAAU: -4.26 ± 0.2 and -2.66 ± 0.16. Turning to CAUCAGCAAUAUUACGAAUG, the “self-splicing fitness (ln)” value by setting is: (30 °C) -3.18 ± 0.16; (37 °C) -2.05 ± 0.14. On to CAUCAGCAAUAUUACGACAA, for which the “self-splicing fitness (ln)” value reads like this: (30 °C) -2.31 ± 0.24; (37 °C) -1.41 ± 0.21.

Consider CAUCAGCAAUAUUACGACGU, for which the “self-splicing fitness (ln)” value was -0.965 ± 0.064 (30 °C) and -0.79 ± 0.09 (37 °C).

For the sequence CAUCAGCAAUAUUACGAGAA, the “self-splicing fitness (ln)” value by setting is: (30 °C) -2.12 ± 0.21; (37 °C) -2.09 ± 0.18. For the sequence CAUCAGCAAUAUUACGAUCG, the “self-splicing fitness (ln)” value was -0.307 ± 0.12 (30 °C) and -0.125 ± 0.15 (37 °C). The corresponding values for CAUCAGCAAUAUUACGAUUU are -0.551 ± 0.071 and 0.205 ± 0.1. CAUCAGCAAUAUUACGCAUC: the “self-splicing fitness (ln)” value reads like this: (30 °C) -1.34 ± 0.13; (37 °C) -1.02 ± 0.15. As to CAUCAGCAAUAUUACGCCGC, the “self-splicing fitness (ln)” value (30 °C) is -3.14 ± 0.36.

With CAUCAGCAAUAUUACGCGAG, the “self-splicing fitness (ln)” value reads like this: (30 °C) 0.128 ± 0.083; (37 °C) -0.05 ± 0.1. With CAUCAGCAAUAUUACGCGCC, the “self-splicing fitness (ln)” value was -2.74 ± 0.27 (30 °C) and -1.05 ± 0.27 (37 °C).

On to CAUCAGCAAUAUUACGCGGG, for which the “self-splicing fitness (ln)” value (30 °C) is -2.04 ± 0.13 and the “self-splicing fitness (ln)” value (37 °C) is -0.735 ± 0.12. Turning to CAUCAGCAAUAUUACGCGUU, the “self-splicing fitness (ln)” value was -2.17 ± 0.1 (30 °C) and -1.54 ± 0.13 (37 °C). With CAUCAGCAAUAUUACGGAAA, the “self-splicing fitness (ln)” value runs as follows: (30 °C) -2.66 ± 0.23; (37 °C) -0.167 ± 0.14. The matching figures for CAUCAGCAAUAUUACGGAAC: -2.6 ± 0.19 and -2.54 ± 0.36. The corresponding values for CAUCAGCAAUAUUACGGCAU are -2.85 ± 0.15 and -1.66 ± 0.17. The matching figures for CAUCAGCAAUAUUACGGCCG: -0.131 ± 0.093 and -0.0546 ± 0.14.

On to CAUCAGCAAUAUUACGGCGU, for which the “self-splicing fitness (ln)” value reads like this: (30 °C) -2.3 ± 0.14; (37 °C) -1.94 ± 0.17. Take CAUCAGCAAUAUUACGGUAC: the “self-splicing fitness (ln)” value (30 °C) is -2.95 ± 0.17 and the “self-splicing fitness (ln)” value (37 °C) is -2.71 ± 0.18.

With CAUCAGCAAUAUUACGUACA, the “self-splicing fitness (ln)” value runs as follows: (30 °C) -2.24 ± 0.14; (37 °C) -1.92 ± 0.16. As to CAUCAGCAAUAUUACGUGAC, the “self-splicing fitness (ln)” value is, setting by setting: (30 °C) -3.66 ± 0.19; (37 °C) -1.2 ± 0.14.

Consider CAUCAGCAAUAUUACGUGUC, for which the “self-splicing fitness (ln)” value reads like this: (30 °C) -3.93 ± 0.19; (37 °C) -1.08 ± 0.12. The corresponding values for CAUCAGCAAUAUUACGUUGC are -3.81 ± 0.27 and -2.84 ± 0.2.

On to CAUCAGCAAUAUUACGUUUU, for which the “self-splicing fitness (ln)” value is -2.67 ± 0.1 (30 °C) and -1.8 ± 0.11 (37 °C). For CAUGAGCAAUAUUACGCACU, the “self-splicing fitness (ln)” value (37 °C) was -1.96 ± 0.24. Turning to CAUGAGCAAUAUUACGCAGU, the “self-splicing fitness (ln)” value (30 °C) is -4.2 ± 0.39 and the “self-splicing fitness (ln)” value (37 °C) was -2.63 ± 0.23.

Take CAUGAGCAAUAUUACGCAUA: the “self-splicing fitness (ln)” value is -2.29 ± 0.26 (30 °C) and -1.78 ± 0.23 (37 °C). The matching figures for CAUGAGCAAUAUUACGCCGA: -2.14 ± 0.47 and -2.48 ± 0.31. Take CAUGAGCAAUAUUACGCGAA: the “self-splicing fitness (ln)” value runs as follows: (30 °C) -3.03 ± 0.17; (37 °C) -1.57 ± 0.15. Consider CAUGAGCAAUAUUACGCGGC, for which the “self-splicing fitness (ln)” value by setting is: (30 °C) -2.22 ± 0.43; (37 °C) -2.58 ± 0.29.

As for CAUGAGCAAUAUUACGCUUC, the “self-splicing fitness (ln)” value (37 °C) was -2.38 ± 0.32. On to CAUGAGCAAUAUUACGGGUA, for which the “self-splicing fitness (ln)” value reads like this: (30 °C) -2.86 ± 0.28; (37 °C) -2.23 ± 0.28.

Take CAUGAGCAAUAUUACGGUAC: the “self-splicing fitness (ln)” value (30 °C) is -2.67 ± 0.41 and the “self-splicing fitness (ln)” value (37 °C) is -2.32 ± 0.34. The matching figures for CAUGAGCAAUAUUACGUAAG: -0.906 ± 0.096 and -0.568 ± 0.11. CAUGAGCAAUAUUACGUGAU: the “self-splicing fitness (ln)” value by setting is: (30 °C) -2.58 ± 0.14; (37 °C) -2.68 ± 0.2. On to CAUGAGCAAUAUUACGUGCC, for which the “self-splicing fitness (ln)” value was -3.97 ± 0.33 (30 °C) and -2.47 ± 0.32 (37 °C). The matching figures for CAUGAGCAAUAUUACGUUAC: -3.24 ± 0.15 and -3.39 ± 0.2. Take CAUUAGCAAUAUUACGAAAA: the “self-splicing fitness (ln)” value is -2.21 ± 0.46 (30 °C) and -1.46 ± 0.45 (37 °C). The matching figures for CAUUAGCAAUAUUACGAACG: 0.479 ± 0.09 and 0.736 ± 0.099. Regarding CAUUAGCAAUAUUACGAAGU, under “37 °C”, the “self-splicing fitness (ln)” value was -1.37 ± 0.44.

For the sequence CAUUAGCAAUAUUACGAGCC, the “self-splicing fitness (ln)” value was -2.89 ± 0.23 (30 °C) and -2.08 ± 0.27 (37 °C). With CAUUAGCAAUAUUACGAUCC, for the setting “37 °C”, the “self-splicing fitness (ln)” value was 0.538 ± 0.22. Regarding CAUUAGCAAUAUUACGCACC, the “self-splicing fitness (ln)” value was -2.94 ± 0.23 (30 °C) and -1.53 ± 0.19 (37 °C). The matching figures for CAUUAGCAAUAUUACGCCAA: -2.88 ± 0.33 and -2.63 ± 0.48. The matching figures for CAUUAGCAAUAUUACGCCCG: 0.404 ± 0.13 and 0.579 ± 0.17. The matching figures for CAUUAGCAAUAUUACGCCGA: -2.32 ± 0.19 and -2.18 ± 0.2. As to CAUUAGCAAUAUUACGCCGC, the “self-splicing fitness (ln)” value (30 °C) was -1.43 ± 0.29. Regarding CAUUAGCAAUAUUACGCGCA, the “self-splicing fitness (ln)” value is -1.39 ± 0.16 (30 °C) and -1.52 ± 0.17 (37 °C). The matching figures for CAUUAGCAAUAUUACGCGUU: -2.44 ± 0.12 and -1.48 ± 0.17.

With CAUUAGCAAUAUUACGGAAA, the “self-splicing fitness (ln)” value is, setting by setting: (30 °C) -3.86 ± 0.47; (37 °C) -2.52 ± 0.3.

For CAUUAGCAAUAUUACGGAGA, the “self-splicing fitness (ln)” value by setting is: (30 °C) -3.12 ± 0.41; (37 °C) -2.39 ± 0.3. CAUUAGCAAUAUUACGGAUA: the “self-splicing fitness (ln)” value is, setting by setting: (30 °C) -2.16 ± 0.12; (37 °C) -1.42 ± 0.13.

CAUUAGCAAUAUUACGGCGA: the “self-splicing fitness (ln)” value reads like this: (30 °C) -2.09 ± 0.3; (37 °C) -3.32 ± 0.47. The matching figures for CAUUAGCAAUAUUACGGCGG: 0.0154 ± 0.093 and 0.252 ± 0.12.

Consider CAUUAGCAAUAUUACGGGCG, for which the “self-splicing fitness (ln)” value is, setting by setting: (30 °C) -0.183 ± 0.092; (37 °C) 0.436 ± 0.098.

On to CAUUAGCAAUAUUACGGGCU, for which the “self-splicing fitness (ln)” value reads like this: (30 °C) -1.68 ± 0.2; (37 °C) -2.7 ± 0.3. As for CAUUAGCAAUAUUACGGGGC, the “self-splicing fitness (ln)” value reads like this: (30 °C) -3.44 ± 0.23; (37 °C) -1.95 ± 0.23. Regarding CAUUAGCAAUAUUACGGUCA, the “self-splicing fitness (ln)” value runs as follows: (30 °C) -2.02 ± 0.3; (37 °C) -1.63 ± 0.3. The corresponding values for CAUUAGCAAUAUUACGGUCU are -3.48 ± 0.31 and -2.22 ± 0.29. The matching figures for CAUUAGCAAUAUUACGUAGC: -3.25 ± 0.19 and -2.4 ± 0.17. The matching figures for CAUUAGCAAUAUUACGUAUA: -2.34 ± 0.14 and -0.81 ± 0.12. Turning to CAUUAGCAAUAUUACGUCGG, the “self-splicing fitness (ln)” value is -0.0974 ± 0.13 (30 °C) and 0.403 ± 0.14 (37 °C).

As for CAUUAGCAAUAUUACGUCUC, the “self-splicing fitness (ln)” value is -3.28 ± 0.27 (30 °C) and -1.76 ± 0.23 (37 °C).

For the sequence CAUUAGCAAUAUUACGUGUG, the “self-splicing fitness (ln)” value by setting is: (30 °C) -2.91 ± 0.19; (37 °C) -3.15 ± 0.19. The corresponding values for CCAAAGCAAUAUUACGAAUU are -3.58 ± 0.15 and -3.46 ± 0.19.

The values are drawn from the supplement of paper PMC7877785.
